In assay [1] the target is LILRB2 antigen of the ELISA of Table 5 (format not specified) (UniProt Q8N423 22-460, limits assumed). Briefly: ELISA, antibody titration.
For assay [2], the target named is T1, human LILRB2 expressed on cells (293T-LILRB2, CHO-K1-LILRB2) (human, UniProt Q8N423 22-597).
T1 construct: whole, on cells; the cell line is named under assay; also called HEK293T-LILRB2
In words: flow cytometry, 293T-LILRB2 cells. An excerpt:
The fluorescent signals were detected by flow cytometry.

Assay [3] addresses T1, human LILRB2 expressed on cells …. In words: flow cytometry, His-HLA-A2 tetramer (competitor) bound to 293T-LILRB2 cells, relative to no antibody. Set-up: concentration or dose not given beside the values. The protocol: Serial diluted h#2E1 antibodies were then added to the mixture and incubated at room temperature for another 45 minutes. […]
For assay [4], the target named is T2, recombinant human LILRB2 protein (human, UniProt Q8N423 22-460, limits assumed).
T2 construct: also called recombinant LILRB2 protein
T2 sequence (Q8N423 22-460 limits assumed): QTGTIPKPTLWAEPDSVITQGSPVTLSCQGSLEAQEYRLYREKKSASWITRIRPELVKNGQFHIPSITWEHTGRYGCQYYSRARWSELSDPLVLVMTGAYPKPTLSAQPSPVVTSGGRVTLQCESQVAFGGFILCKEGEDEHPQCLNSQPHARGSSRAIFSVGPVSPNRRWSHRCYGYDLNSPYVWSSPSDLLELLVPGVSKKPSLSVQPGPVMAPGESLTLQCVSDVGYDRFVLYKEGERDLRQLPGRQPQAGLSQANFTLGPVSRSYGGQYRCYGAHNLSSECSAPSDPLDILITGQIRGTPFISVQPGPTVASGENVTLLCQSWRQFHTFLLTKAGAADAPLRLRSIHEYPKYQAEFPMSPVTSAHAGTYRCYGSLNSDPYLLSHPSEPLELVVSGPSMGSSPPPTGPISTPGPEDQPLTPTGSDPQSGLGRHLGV
Briefly: ELISA, coated recombinant human LILRB2. Also on record: unit not given here. On the procedure:
This affinity maturation library was screened against human LILRB2 to identify antibodies having high binding affinity to LILRB2. Briefly, an ELISA plate was coated with 0.1 ug/well recombinant human LILRB2 protein. Serial diluted maturated h#2E1 antibodies were incubated in the LILRB2 coated plate for 2 hrs. The plate was washed and a secondary HRP-labeled anti-human IgG was then added to each well. After being incubated at room temperature for 1 hour, the colorimetric ELISA signals were developed by adding the TMB substrate and reaction was stopped by 1M H3PO4. Table 7 below provides binding activities of exemplary matured antibodies to recombinant LILRB2 protein.

In assay [5] the target is T1, human LILRB2 expressed on cells …. Briefly: flow cytometry, blockade of His-tagged HLA-G tetramer binding to 293T-LILRB2 cells; fit table under the graph. On the procedure: Serial diluted humanized LILRB2 antibodies were then added to the mixture and incubated at room temperature for another 45 minutes. The binding of HLA-G/LILRB2 was detected afterwards using a secondary PE-labeled anti-His tag antibody via flow cytometry.

Where a chain is given by its changes, count along the chain named.

T1 sequence (Q8N423 22-597): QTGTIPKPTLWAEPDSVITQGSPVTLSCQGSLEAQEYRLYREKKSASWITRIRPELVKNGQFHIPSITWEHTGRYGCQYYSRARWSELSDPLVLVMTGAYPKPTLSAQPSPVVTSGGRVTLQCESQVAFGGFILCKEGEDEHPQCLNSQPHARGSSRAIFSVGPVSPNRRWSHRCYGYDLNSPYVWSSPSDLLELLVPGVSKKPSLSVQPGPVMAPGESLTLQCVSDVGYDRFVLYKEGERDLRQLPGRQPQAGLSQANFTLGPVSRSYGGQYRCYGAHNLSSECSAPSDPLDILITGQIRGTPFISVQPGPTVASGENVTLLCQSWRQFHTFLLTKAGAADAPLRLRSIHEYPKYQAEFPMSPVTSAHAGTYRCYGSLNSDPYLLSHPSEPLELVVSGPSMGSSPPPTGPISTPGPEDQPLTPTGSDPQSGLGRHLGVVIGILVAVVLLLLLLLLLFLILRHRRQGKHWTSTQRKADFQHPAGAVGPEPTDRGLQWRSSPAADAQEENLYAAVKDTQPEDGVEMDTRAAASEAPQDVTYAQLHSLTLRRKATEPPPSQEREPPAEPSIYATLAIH
Chain of LILRB2 antigen of the ELISA of Table 5 (format not specified) (Q8N423 22-460 limits assumed): as the sequence (Q8N423 22-460 limits assumed) above

B1: Antibody 13C4 (antibody, V domains shown)
VH: QIHLVQSGPELKKPGETVKISCKASGYTFTNYGMNWVKQAPGKALKWMGWMNTYIGEPTYADDFKGRFAFSLETSASTAYLQINNLKNEDMATYFCARRGDYASYYFDYWGQGTTLTVSS
VL: DIVLTQSPATLSVTPGDSVSLSCRASQNINNNLHWYHQKSHESPRLLIKYASQSISGIPSRVSGSGSGTDFTLSIVTVETEDFGMFFCQQSNSWPHTFGGGTKLEIR
notes: Mouse hybridoma mAb purified from ascites
The molecule B1 displayed a Kd in assay [1] of 11700 pM.

B2: Antibody 2E1_FD4 (antibody, V domains shown)
VH: EVQLVESGGGLVQPGGSLRLSCAVSGYSITSGYYWNWIRQAPGKGLEWVAYISYDGNPNYNPSLKNRFTISRDTSKNTFYLQMNSLRAEDTAVYYCAREESTMITTAWFAYWGQGTLVTVSS
VL: DIQMTQSPSSLSASVGDRVTITCRASENIYSNLAWYQQKPGKAPKLLIYGATNLASGVPSRFSGSGSGTDYTLTISSLQPEDFATYYCQHFWDTPYTFGQGTKVEIK
As for B2, the Bmax was 431000 in assay [2] and 1.14 in assay [4]. In addition, the “% no Ab” value in assay [3] came to 49%.

B3: Antibody 2E1_GE6 (antibody, V domains shown)
VH: B2 VH with N36W, P58N
VL: B2 VL with L33N, N53Y
B3: the Bmax turned out to be 665000 in assay [2] and 1.65 in assay [4].

B4: Antibody 2E1_GH11 (antibody, V domains shown)
VH: B2 VH with N36W, P58N
VL: B2 VL with R24N
On to B4, for which the results for the Bmax in assay [2] and in assay [4] were 743000 and 1.58, respectively.

B5: Antibody 2E1_FG4 (antibody, V domains shown)
VH: B2 VH with P58V
VL: B2 VL with T97I
For B5, the Bmax in assay [2] amounted to 434000; in assay [4], 1.4. In addition, in assay [3], the “% no Ab” value was determined as 55.4%.

B6: Antibody 2E1_GB8 (antibody, V domains shown)
VH: B2 VH with N36W, P58N
VL: B2 VL with R24S
With B6, the values for the Bmax in assay [2] and in assay [4] were 659000 and 1.47, respectively.

B7: Antibody 2E1_FF3 (antibody, V domains shown)
VH: B2 VH with P58N, N59S
VL: B2 VL
As for B7, the values for the Bmax in assay [2] and in assay [4] were 434000 and 1.17, respectively.

B8: Antibody 2E1_GD9 (antibody, V domains shown)
VH: B2 VH with P58N
VL: B2 VL with Y30F
Turning to B8, the results for the Bmax in assay [2] and in assay [4] were 724000 and 1.39, respectively. In addition, the “% no Ab” value in assay [3] worked out at 52.9%.

B9: Antibody 2E1_GH6 (antibody, V domains shown)
VH: B2 VH with Y34H, P58N
VL: B2 VL
B9 gave an IC50 in assay [5] of 596 pM. For the same molecule, in assay [5], the Span stood at 5760 RFU. For the same molecule, the Bmax in assay [2] is 678000; in assay [4] it was 1.26. The “% no Ab” value in assay [3] came out at 46.6%.

B10: Antibody 2E1_FG2 (antibody, V domains shown)
VH: B2 VH with P58T
VL: B2 VL with T97V
On to B10, for which the figures for the Bmax in assay [2] and in assay [4] were 417000 and 1.26, respectively. The “% no Ab” value in assay [3] came to 53.6%.

B11: Antibody 2E1_GE11 (antibody, V domains shown)
VH: B2 VH with Y34S, P58N
VL: B2 VL with R24G, N53E
As to B11, the Bmax was 658000 in assay [2] and 1.37 in assay [4]. In addition, in assay [3], the “% no Ab” value was determined as 46.2%.

B12: Antibody 2E1_GC8 (antibody, V domains shown)
VH: B2 VH with N36W, P58N
VL: B2 VL with L33Q, L54R
As for B12, the results for the Bmax in assay [2] and in assay [4] were 697000 and 1.44, respectively.

B13: Antibody 2E1_GA1 (antibody, V domains shown)
VH: B2 VH with N36W, P58N
VL: B2 VL
For B13, the results for the Bmax in assay [2] and in assay [4] were 739000 and 1.62, respectively.

B14: Antibody 2E1_GG1 (antibody, V domains shown)
VH: B2 VH with Y34A, P58N
VL: B2 VL
Regarding B14, the Bmax is 688000 in assay [2] and 1.56 in assay [4].

B15: Antibody 2E1_GB7 (antibody, V domains shown)
VH: B2 VH with N36W, P58N
VL: B2 VL with R24L
Regarding B15, the Bmax in assay [2] worked out at 636000; in assay [4], 1.48.

B16: Antibody 2E1_FE1 (antibody, V domains shown)
VH: B2 VH with P58M
VL: B2 VL
As to B16, the Bmax in assay [2] was 690000.

B17: Antibody 2E1_GF1 (antibody, V domains shown)
VH: B2 VH with P58N
VL: B2 VL with N28V
The molecule B17 yielded an IC50 in assay [5] of 331 pM. The same molecule registered a Span in assay [5] of 6980 RFU. Further, the Bmax in assay [2] was found to be 706000; in assay [4] it was 1.5. Besides, the “% no Ab” value in assay [3] was determined as 47.9%.

B18: Antibody 2E1_GA4 (antibody, V domains shown)
VH: B2 VH with Y34A, P58N
VL: B2 VL with R24V
For the molecule B18, the Bmax worked out at 725000 in assay [2] and 1.61 in assay [4].

B19: Antibody 2E1_GF9 (antibody, V domains shown)
VH: B2 VH with Y34S, P58N
VL: B2 VL with N28T, S56A
B19: the figures for the Bmax in assay [2] and in assay [4] were 639000 and 1.14, respectively. For the same molecule, the “% no Ab” value in assay [3] was determined as 46.2%.

B20: Antibody 2E1_GB11 (antibody, V domains shown)
VH: B2 VH with P58N
VL: B2 VL with S56L
In assay [5], B20 gave an IC50 of 590 pM and a Span of 8170 RFU. In assay [2], this molecule had a Bmax of 627000. The “% no Ab” value in assay [3] is 50.1%. In addition, the Bmax in assay [4] stood at 1.16.

B21: Antibody 2E1_GF8 (antibody, V domains shown)
VH: B2 VH with N36W, P58N
VL: B2 VL with A25G
For B21, the Bmax in assay [2] worked out at 688000; in assay [4], 1.56.

B22: Antibody 2E1_FH2 (antibody, V domains shown)
VH: B2 VH with Y51S, P58N
VL: B2 VL
As to B22, the Bmax worked out at 420000 in assay [2] and 0.989 in assay [4]. Further, the “% no Ab” value in assay [3] was found to be 51.5%.

B23: Antibody 2E1_GB1 (antibody, V domains shown)
VH: B2 VH with Y34S, P58N
VL: B2 VL
As to B23, the Bmax came to 637000 in assay [2] and 1.01 in assay [4]. In addition, the “% no Ab” value in assay [3] is 50.9%.

B24: Antibody 2E1_GH3 (antibody, V domains shown)
VH: B2 VH with P58N
VL: B2 VL with A55S
For B24, the figures for the Bmax in assay [2] and in assay [4] were 641000 and 1.14, respectively.

B25: Antibody 2E1_GH4 (antibody, V domains shown)
VH: B2 VH with N36W, P58N
VL: B2 VL with L54F
Consider B25, for which the Bmax in assay [2] was 646000; in assay [4], 1.51.

B26: Antibody 2E1_FH9 (antibody, V domains shown)
VH: B2 VH with P58N, N59L
VL: B2 VL
For the molecule B26, the Bmax in assay [2] was 684000; in assay [4], 1.24. Also, the “% no Ab” value in assay [3] is 47.1%.

B27: chimeric 9B6 (antibody, V domains shown)
VH: DVQLVESGGGLVQPGWSRILSCAASGFTFSNFGMHWVRQAPEKGLEWVAYISSGSGTIYYSDTVRGRFTISRDNPKNTLFLLMTSLRSEDTAMYYCTRSDYDGDWFFDVWGAGTTVTVSS
VL: DIVMTQSHRFLSTSVGDRVTITCKASQDVTTAVAWCQQKPGQSPKLLIYSASFRYTGVPDRFTGSGSGTDFTFTINNVQAEDLALYYCQQHFTTPLTFGAGTKLELK
For B27, the IC50 in assay [5] was roughly 833 pM.

Values taken from patent US20240109962A1 (SPARX BIOSCIENCE, published 2024).
